The text below walks through data of patent publication US20100022453A1 (UNIVERSITY OF ROCHESTER, published 2010).

Sequences and labels used below:
B2: rat NgR1 (Nogo-66 receptor), full-length, expressed on cells (receptor)
chain: CPGACVCYNEPKVTTSCPQQGLQAVPTGIPASSQRIFLHGNRISYVPAASFQSCRNLTILWLHSNALAGIDAAAFTGLTLLEQLDLSDNAQLRVVDPTTFRGLGHLHTLHLDRCGLQELGPGLFRGLAALQYLYLQDNNLQALPDNTFRDLGNLTHLFLHGNRIPSVPEHAFRGLHSLDRLLLHQNHVARVHPHAFRDLGRLMTLYLFANNLSMLPAEVLVPLRSLQYLRLNDNPWVCDCRARPLWAWLQKFRGSSSEVPCNLPQRLAGRDLKRLAASDLEGCAVASGPFRPFQTNQLTDEELLGLPKCCQPDAADKASVLEPGRPASAGNALKGRVPPGDTPPGNGSGPRHINDSPFGTLPGSAEPPLTALRPGGSEPPGLPTTGPRRRPGCSRKNRTRSHCRLGQAGSGSSGTGDAEGS
notes: also called Nogo receptor NgR1; NgR1 in COS cells
B5: rat NgR2, full-length, expressed on COS-7 cells (receptor)
chain: CPMLCTCYSSPPTVSCQANNFSSVPLSLPPSTQRLFLQNNLIRSLRPGTFGPNLLTLWLFSNNLSTIYPGTFRHLQALEELDLGDNRHLRSLEPDTFQGLERLQSLHLYRCQLSSLPGNIFRGLVSLQYLYLQENSLLHLQDDLFADLANLSHLFLHGNRLRLLTEHVFRGLGSLDRLLLHGNRLQGVHRAAFHGLSRLTILYLFNNSLASLPGEALADLPALEFLRLNANPWACDCRARPLWAWFQRARVSSSDVTCATPPERQGRDLRTLRDTDFQACPPPTPTRPGSRARGNSSSNHLYGVAEAGAPPADPSTLYRDLPAEDSRGRQGGDAPTEDDYWGGYGGEDQRGEQTCPGAAC
notes: also called NgR2 in COS cells

Test [1] has as its target B2. As to the kind of experiment: AP-ligand binding to NgR1 on COS cells. Here is the method:
(§1) Techniques for ligand binding to NgR1 on COS cells is described in detail in Venkatesh et al. (2005) Journal of Neuroscience 25:808-22, which is incorporated herein by reference in its entirety at least for the methods taught therein. Briefly, receptor constructs were expressed transiently in COS-7 cells in 24-well plates coated with poly-D-lysine (PDL; 50 μg/ml), using Lipofectamine 2000. At 24 h after transfection the cells were rinsed and incubated for 75 min at ambient temperature with alkaline phosphatase tagged FGF1, FGF2, FGF4, FGF8, FGF9, and FGF21. To monitor bound ligand, plates were developed with NBT/BCIP substrate; the color reaction was stopped by two rinses in PBS. For quantification of ligand binding the cells were processed as described above; after ligand incubation the cells were rinsed in HBHA and lysed in 20 mM Tris, pH 8.0, 0.1% Triton X-100. The lysates were incubated at 65° C. for 60 min and spun at 10,000×g for 5 min. The relative AP activity in supernatants was normalized to cell surface receptor expression, using anti-myc (1:1000), anti-NgR1 (1:1000), anti-NgR2 (1:1000), or anti-NgR3 (1:200) antibodies, as described previously (Giger et al., Neuron 21:1079-92, 1998). Scatchard plot analysis was performed analogous to a previous study (Kolodkin et al., Cell 90:753-62, 1997).

Test [2] addresses B5. Kind of test: AP-ligand binding to NgR2 on COS cells. Here is the method: as §1
Test [3] deals with T1, AP-FGF9 (mouse) (human; mouse, UniProt P54130 4-208). Kind of test: AP-ligand binding to NgR1 on COS-7 cells. Here is the method: as §1
For test [4], the target named is T2, AP-sNgR1^CT+stalk (Phe278-Glu445) (human; rat).
T2 construct: Expressed in HEK293T cells and used as conditioned supernatant
T2 sequence (P05187 other isoform, or with tags, fused parts or gaps): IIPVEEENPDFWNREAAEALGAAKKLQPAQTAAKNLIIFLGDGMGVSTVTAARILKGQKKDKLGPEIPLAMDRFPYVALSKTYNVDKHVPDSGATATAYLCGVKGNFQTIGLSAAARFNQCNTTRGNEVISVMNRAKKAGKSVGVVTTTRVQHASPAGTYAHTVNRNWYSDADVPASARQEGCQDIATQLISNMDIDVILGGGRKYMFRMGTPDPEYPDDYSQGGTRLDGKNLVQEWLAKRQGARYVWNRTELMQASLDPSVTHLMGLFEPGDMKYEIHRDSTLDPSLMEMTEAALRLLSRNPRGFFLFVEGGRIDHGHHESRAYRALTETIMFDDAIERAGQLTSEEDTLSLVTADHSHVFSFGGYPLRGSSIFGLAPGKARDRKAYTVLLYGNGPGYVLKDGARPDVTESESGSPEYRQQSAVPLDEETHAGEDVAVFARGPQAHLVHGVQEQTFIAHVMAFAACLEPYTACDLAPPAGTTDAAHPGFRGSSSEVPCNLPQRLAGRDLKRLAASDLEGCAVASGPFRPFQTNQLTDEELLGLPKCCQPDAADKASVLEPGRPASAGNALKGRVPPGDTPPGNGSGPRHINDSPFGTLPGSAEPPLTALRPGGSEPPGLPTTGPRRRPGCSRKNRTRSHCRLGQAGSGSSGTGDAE
Kind of test: AP-fusion protein binding to transfected COS-7 cells; (-) = no binding above background.

The target of test [5] is B2. Kind of test: AP-ligand binding to NgR1 on COS-7 cells. Here is the method: as §1
Test [6] addresses T1, AP-FGF9 (mouse). Kind of test: AP-ligand binding to NgR2 on COS-7 cells. Here is the method: as §1
Test [7] addresses B5. As to the kind of experiment: AP-ligand binding to NgR2 on COS-7 cells. Here is the method: as §1
Test [8] addresses B2. Kind of test: AP-tagged ligand binding to NgR1 on COS cells. Here is the method:
as §1

Test [9] has as its target B2. Kind of test: Scatchard plot analysis of AP-ligand binding to NgR1 on COS-7 cells. Here is the method: as §1, with “The relative AP activity in supernatants was normalized to cell surface receptor expression, using anti-myc (1:1000), anti-NgR1 (1:1000), anti-NgR2 (1:1000), or anti-NgR3 (1:200) antibodies, as described previously (Giger et al., Neuron 21:1079-92, 1998). Scatchard plot analysis was performed analogous to a previous study (Kolodkin et al., Cell 90:753-62, 1997).” left out
To address whether NgR1 interacts directly with FGF2, affinity precipitation experiments were performed. […] The complexes of ¹²⁵I-FGF2:NgR1-Fc and ¹²⁵I-FGF2:FGFR1-Fc run at apparent molecular weights of 220- and 250-kDa and higher molecular weight complexes containing ¹²⁵I-FGF2 are detected as well (FIG. 3C).

Test [10] concerns the target T3, NgR1-Fc (mouse NogoR/Fc, R&D Systems) (mouse, UniProt Q99PI8 27-447).
T3 construct: also called soluble NgR1-Fc
T3 sequence (looked up): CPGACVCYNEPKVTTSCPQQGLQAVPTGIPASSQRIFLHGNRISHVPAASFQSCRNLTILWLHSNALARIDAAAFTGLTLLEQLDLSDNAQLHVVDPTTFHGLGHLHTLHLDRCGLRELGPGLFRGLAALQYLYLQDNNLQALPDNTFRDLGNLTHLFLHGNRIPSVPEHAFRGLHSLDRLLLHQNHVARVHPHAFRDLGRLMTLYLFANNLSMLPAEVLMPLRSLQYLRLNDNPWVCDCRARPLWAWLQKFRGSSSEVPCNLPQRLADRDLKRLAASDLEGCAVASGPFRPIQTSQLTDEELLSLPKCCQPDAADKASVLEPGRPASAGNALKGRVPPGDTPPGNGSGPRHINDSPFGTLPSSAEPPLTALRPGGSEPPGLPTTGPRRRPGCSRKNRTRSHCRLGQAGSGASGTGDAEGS
As to the kind of experiment: affinity precipitation with NgR1-Fc on Protein A/G beads, anti-AP Western blot. Here is the method:
NgR1-Fc (0.5 μg, R&D Systems) and AP-tagged ligands (1.5 nM final conc.) were mixed in DMEM containing 0.1% BSA and protease inhibitor cocktail and were incubated at 4° C. for 2 h. AP-ligands bound to NgR1-Fc were precipitated with Protein A/G agarose beads after 2 h at 4° C. Samples were rinsed extensively in washing buffer (20 mM Tris-HCl, pH 7.5, 150 mM NaCl, 1% NP40, 5 mM EDTA) and analyzed by Western blotting using an anti-AP antibody. For cross-linking experiments, NgR1-Fc, FGFR1D(IIIb)/Fc, TROY-Fc, or ephrinB3-Fc (R&D Systems) (each at 13 nM), were incubated with 40 nM ¹²⁵I-FGF2 (specific activity: ˜50 μCi/μg, MP Biochem.) with or without the indicated concentrations of cold FGF2 or insulin for 2 h at room temperature in PBS. Cross-linking was initiated by adding BS³ (bis[sulfosuccinimidyl]suberate, Pierce, Rockford, Ill.) to a final concentration of 2 mM and incubating for 30 min at room temperature. The reaction was stopped by adding 2 μl of 1 M Tris-HCl (pH 7.4) and protein complexes were analyzed by SDS-PAGE. Gels were subsequently fixed, dried, and subjected to autoradiography.
Background: A western blot detects proteins with antibodies after separation by electrophoresis.

One may read the Kd as the equilibrium constant for the complex coming apart. A higher Kd goes with a looser complex.

B1: AP-FGF4 (mouse) (ligand, UniProt P11403 30-202, looked up)
chain: APNGTRHAELGHGWDGLVARSLARLPVAAQPPQAAVRSGAGDYLLGLKRLRRLYCNVGIGFHLQVLPDGRIGGVHADTRDSLLELSPVQRGVVSIFGVASRFFVAMSSRGKLFGVPFFTDECKFKEILLPNNYNAYESYAYPGMFMALSKNGRTKKGNRVSPTMKVTHFLPRL
notes: not shown: human placental alkaline phosphatase (AP) tag
Consider B1, for which the binding result is “binds” in [1] and “no binding” in [2].

For B2, the binding result (with AP-FGF9 (mouse) [3]; in [4]) was “no binding” in each case.

B3: AP-FGF21 (mouse) (ligand, UniProt Q9JJN1 29-210, looked up)
chain: AYPIPDSSPLLQFGGQVRQRYLYTDDDQDTEAHLEIREDGTVVGAAHRSPESLLELKALKPGVIQILGVKASRFLCQQPDGALYGSPHFDPEACSFRELLLEDGYNVYQSEAHGLPLRLPQKDSPNQDATSWGPVRFLPMPGLLHEPQDQAGFLPPEPPDVGSSDPLSMVEPLQGRSPSYAS
notes: as for B1
As for B3, the binding result in [2] and in test [5] was “no binding” in each case.

B4: Nogo66-Npn1 (human Nogo66 fused to the transmembrane and cytoplasmic portion of rat neuropilin-1) on COS-7 cells (other, human;rat, UniProt Q9NQC3 1055-1120, looked up)
chain: RIYKGVIQAIQKSDEGHPFRAYLESEVAISEELVQKYSNSALGHVNCTIKELRRLFLVDDLVDSLKILITIIAMSALGVLLGAVCGVVLYCACWHNGMSERNLSALENYNFELVDGVKLKKDKLNPQSNYSEA
notes: domain: Nogo66;domain: transmembrane and cytoplasmic portion; Chimeric cell-surface form of Nogo66; also called Nogo66-Npn1 in COS cells
On to B4, for which the binding result in [4] is recorded as “no binding”.

B5: the binding result (in the test with AP-FGF9 (mouse) [6]; in [4]) was “no binding” in each case.

B6: AP-FGF8 (mouse) (ligand, UniProt P37237-2 23-215, looked up)
chain: QVTVQSSPNFTQHVREQSLVTDQLSRRLIRTYQLYSRTSGKHVQVLANKRINAMAEDGDPFAKLIVETDTFGSRVRVRGAETGLYICMNKKGKLIAKSNGKGKDCVFTEIVLENNYTALQNAKYEGWYMAFTRKGRPRKGSKTRQHQREVHFMKRLPRGHHTTEQSLRFEFLNYPPFTRSLRGSQRTWAPEPR
notes: also called FGF8b; not shown: human placental alkaline phosphatase (AP) tag
For B6, the binding result in test [2] and in [5] was “no binding” each time.

B7: AP-FGF2 (mouse), alkaline phosphatase tagged FGF2 (ligand, UniProt P15655 10-154, looked up)
chain: PALPEDGGAAFPPGHFKDPKRLYCKNGGFFLRIHPDGRVDGVREKSDPHVKLQLQAEERGVVSIKGVCANRYLAMKEDGRLLASKCVTEECFFFERLESNNYNTYRSRKYSSWYVALKRTGQYKLGSKTGPGQKAILFLPMSAKS
notes: also called bFGF; basic FGF; not shown: human placental alkaline phosphatase (AP) tag
For B7, the binding result in test [7] is reported as “no binding”; in [10] it was “binds”. The figures for the Kd in test [8] and in test [9] were approximately 10 nM and 16.9 nM, respectively.

B8: rat NgR3 expressed on COS-7 cells (receptor, UniProt Q80WD0 25-424, looked up)
chain: CPRDCVCYPSPMTVSCQAHNFAAIPEGIPEDSERIFLQNNHITFLQQGHFSPAMVTLWIYSNNITFIAPNTFEGFVHLEELDLGDNRQLRTLAPETFQGLVKLHALYLYKCGLSSLPAGIFGGLHSLQYLYLQDNHIEYLQDDIFVDLVNLSHLFLHGNKLWSLGQGIFRGLVNLDRLLLHENQLQWVHHKAFHDLHRLTTLFLFNNSLTELQGDCLAPLVALEFLRLNGNAWDCGCRARSLWEWLRRFRGSSSVVPCATPELRQGQDLKSLRVEDFRNCTGPASPHQIKSHTLSTSDRAARKEHHPSHGASRDKGHPHGHLPGSRSGSKKPGKNCTSHRNRNQISKGSAGKELPELQDYAPDYQHKFSFDIMPTARPKRKGKCARRTPIRAPSGVQQAS
notes: whole, on cells; also called NgR3 in COS cells
As to B8, the binding result in [4] was “no binding”.
